From patent US6770444 come the findings set out here.

The IC50 is the midpoint of a concentration-inhibition curve. Low values mean higher potency, high ones lower potency.

The assay addresses human Ob-Rb (human) (UniProt P48357). Briefly: SPA displacement of [125I] leptin, Cos-7 cells transfected with human Ob-Rb. A general note: In a radioligand displacement assay an active substance lowers the binding of a labelled ligand.
UniProt P48357, sequence (P48357 22-1165): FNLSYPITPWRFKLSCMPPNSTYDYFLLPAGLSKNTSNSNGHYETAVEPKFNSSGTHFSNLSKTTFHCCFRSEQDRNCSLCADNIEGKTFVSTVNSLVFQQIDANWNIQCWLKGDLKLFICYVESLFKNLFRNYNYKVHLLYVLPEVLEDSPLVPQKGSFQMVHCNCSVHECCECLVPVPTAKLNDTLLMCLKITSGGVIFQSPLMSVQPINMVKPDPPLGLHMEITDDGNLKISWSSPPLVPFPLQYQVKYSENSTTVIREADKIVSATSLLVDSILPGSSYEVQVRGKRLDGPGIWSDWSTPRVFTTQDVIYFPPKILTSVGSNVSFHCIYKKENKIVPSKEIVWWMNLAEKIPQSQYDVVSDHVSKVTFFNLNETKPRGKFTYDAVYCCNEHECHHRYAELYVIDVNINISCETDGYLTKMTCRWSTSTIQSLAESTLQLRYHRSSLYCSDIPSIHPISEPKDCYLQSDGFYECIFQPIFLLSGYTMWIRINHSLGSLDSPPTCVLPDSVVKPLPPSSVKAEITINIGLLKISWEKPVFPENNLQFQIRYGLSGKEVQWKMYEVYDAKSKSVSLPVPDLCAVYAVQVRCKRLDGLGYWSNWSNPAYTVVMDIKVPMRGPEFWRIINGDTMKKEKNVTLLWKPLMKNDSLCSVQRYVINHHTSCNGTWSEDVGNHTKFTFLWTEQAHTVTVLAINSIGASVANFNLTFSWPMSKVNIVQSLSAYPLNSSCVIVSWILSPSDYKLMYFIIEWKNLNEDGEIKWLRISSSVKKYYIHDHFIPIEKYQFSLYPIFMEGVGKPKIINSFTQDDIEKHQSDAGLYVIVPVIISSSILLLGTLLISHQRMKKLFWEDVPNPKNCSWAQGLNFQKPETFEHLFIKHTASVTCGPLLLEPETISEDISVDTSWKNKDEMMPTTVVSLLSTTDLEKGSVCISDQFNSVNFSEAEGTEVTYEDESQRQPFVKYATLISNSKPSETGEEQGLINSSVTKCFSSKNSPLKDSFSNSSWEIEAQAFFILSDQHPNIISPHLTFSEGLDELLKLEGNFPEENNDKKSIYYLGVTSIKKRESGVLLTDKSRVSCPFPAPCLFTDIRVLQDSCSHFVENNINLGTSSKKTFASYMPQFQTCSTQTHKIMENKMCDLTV

Turning to leptin (unlabeled) (ligand), the IC50 fell in the range of 10 to 15 nM.
